For one experiment, the target named is T1, importin beta (human, UniProt Q14974 1-876).
T1 construct: also called imp beta; nuclear transport shuttle for SREBPs
Put plainly: pull-down from human Jurkat T cell lysate, immunoblot. The method, then:
(§1) Cell-penetrating peptide cSN50.1 (2986 Da) and other peptides listed in Table 1 were synthesized and prepared as previously described (Liu, D., et al., (2009) Mol Ther 17, 796-802). Biotinylated NTM peptides and their constituent modules were prepared in the same manner, with biotin added to the amino terminus at the last step of synthesis. When necessary, a 5-7 hydrophilic amino acid tag was added to peptide modules to facilitate solubility. For i.p. administration, 200 μl aliquots containing 0.4 or 0.7 mg of cSN50.1 in saline was injected at 8 h or 12 h intervals. Alternatively, 10 mg cSN50.1 in 100 μl sterile H₂O was administered subcutaneously from ALZET Osmotic Pumps (1007D) placed aseptically in interscapular areas. A bolus of 0.7 mg cSN50.1 in 100 μl saline was administered i.p. at weekly pump changes to assure steady NTM bioavailability. Dosage schedules were developed based on previous experimental protocols and half-life studies. Control mice received sterile saline in the same volumes as NTM. Importins pull-down assay. Ten nmols of biotinylated NTM peptides or their constituent modules depicted in Table 1 (SN50, cSN50.1, N50, cN50.1, SSHR-1, SSHR-2) were incubated overnight at 4° C. with 1.5 mg of whole cell extract from unstimulated human Jurkat T cells or serum-starved human HepG2 cells lysed in binding buffer (10 mM HEPES at pH 7.9, 150 mM NaCl, 10 mM KCl, 2.5 mM MgCl₂, 1 mM EGTA, 1 mM DTT, 0.1% NP-40, 1% protease inhibitor cocktail). Lysate was cleared by centrifugation (16,000×g for 30 min at 4° C.) and transferred to a fresh tube containing high capacity Neutravidin beads (Thermo Scientific). After 4 h, beads were separated from lysate/peptide mixture by centrifugation (30 s at 1,000×g) and washed 3 times with binding buffer and 2 times with PBS. Beads were boiled for 10 min in SDS loading buffer, and protein content was analyzed by immunoblotting with a panel of anti-importins alpha and beta antibodies and anti-GAPDH (Abcam) as a cellular protein control.
(In general: In western blotting, separated proteins are transferred to a membrane and probed.)

The next experiment concerns the target T2, GAPDH (human, UniProt P04406 2-335).
T2 construct: Cellular protein control of the pull-down; also called control cytoplasmic marker protein GAPDH; control protein GAPDH
Described as above. As to the method: as §1

The next experiment addresses T3, importin alpha 5 (human, UniProt P52294 1-538).
T3 construct: also called importins alpha; importins/karyopherins alpha
Put plainly: pull-down from cell lysate, immunoblot.

The target in the next experiment is importin alpha 1 (human, UniProt P52292 2-529). Briefly: pull-down from cell lysate, immunoblot.

Positions of bridges follow the written chain, without caps; N, C: chain ends. No end group written: not given here. *: point of attachment. Biotin = O=C1N[C@H]2[C@H](CS[C@H]2CCCCC(=O)*)N1

The values that follow come from patent US20140336113A1 (VANDERBILT UNIVERSITY, published 2014).

T2 sequence (P04406 2-335 limits assumed): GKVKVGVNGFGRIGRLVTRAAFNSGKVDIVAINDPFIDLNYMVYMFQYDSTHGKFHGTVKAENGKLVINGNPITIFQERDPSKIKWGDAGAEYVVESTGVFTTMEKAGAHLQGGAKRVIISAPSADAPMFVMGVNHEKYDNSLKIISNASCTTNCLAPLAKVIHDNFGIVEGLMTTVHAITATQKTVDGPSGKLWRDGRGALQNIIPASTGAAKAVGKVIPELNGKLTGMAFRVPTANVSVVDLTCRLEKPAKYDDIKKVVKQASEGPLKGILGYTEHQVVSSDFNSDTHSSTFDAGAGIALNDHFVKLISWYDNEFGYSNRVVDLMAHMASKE
T1 sequence (Q14974 whole entry): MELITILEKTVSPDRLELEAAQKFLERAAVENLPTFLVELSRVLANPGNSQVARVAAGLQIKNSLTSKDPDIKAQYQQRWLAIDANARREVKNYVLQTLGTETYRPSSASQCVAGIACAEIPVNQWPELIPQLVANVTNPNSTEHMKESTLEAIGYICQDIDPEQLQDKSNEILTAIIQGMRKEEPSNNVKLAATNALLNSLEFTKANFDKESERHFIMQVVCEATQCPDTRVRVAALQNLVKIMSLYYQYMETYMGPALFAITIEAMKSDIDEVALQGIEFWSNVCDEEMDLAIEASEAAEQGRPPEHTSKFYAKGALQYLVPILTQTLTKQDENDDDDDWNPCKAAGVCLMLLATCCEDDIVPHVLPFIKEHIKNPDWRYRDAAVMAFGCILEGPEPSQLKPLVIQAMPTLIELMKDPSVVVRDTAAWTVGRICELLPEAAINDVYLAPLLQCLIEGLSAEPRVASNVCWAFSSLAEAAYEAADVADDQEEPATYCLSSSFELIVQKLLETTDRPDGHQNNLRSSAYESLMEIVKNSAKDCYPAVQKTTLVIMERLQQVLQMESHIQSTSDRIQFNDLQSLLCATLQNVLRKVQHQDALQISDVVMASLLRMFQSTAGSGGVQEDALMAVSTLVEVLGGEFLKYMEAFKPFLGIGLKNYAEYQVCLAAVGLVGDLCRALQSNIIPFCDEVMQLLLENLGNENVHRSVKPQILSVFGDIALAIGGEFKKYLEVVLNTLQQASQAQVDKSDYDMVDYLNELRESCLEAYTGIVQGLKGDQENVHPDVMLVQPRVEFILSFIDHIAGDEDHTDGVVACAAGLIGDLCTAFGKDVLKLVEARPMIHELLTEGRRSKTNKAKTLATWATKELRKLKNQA
T3 sequence (P52294 whole entry): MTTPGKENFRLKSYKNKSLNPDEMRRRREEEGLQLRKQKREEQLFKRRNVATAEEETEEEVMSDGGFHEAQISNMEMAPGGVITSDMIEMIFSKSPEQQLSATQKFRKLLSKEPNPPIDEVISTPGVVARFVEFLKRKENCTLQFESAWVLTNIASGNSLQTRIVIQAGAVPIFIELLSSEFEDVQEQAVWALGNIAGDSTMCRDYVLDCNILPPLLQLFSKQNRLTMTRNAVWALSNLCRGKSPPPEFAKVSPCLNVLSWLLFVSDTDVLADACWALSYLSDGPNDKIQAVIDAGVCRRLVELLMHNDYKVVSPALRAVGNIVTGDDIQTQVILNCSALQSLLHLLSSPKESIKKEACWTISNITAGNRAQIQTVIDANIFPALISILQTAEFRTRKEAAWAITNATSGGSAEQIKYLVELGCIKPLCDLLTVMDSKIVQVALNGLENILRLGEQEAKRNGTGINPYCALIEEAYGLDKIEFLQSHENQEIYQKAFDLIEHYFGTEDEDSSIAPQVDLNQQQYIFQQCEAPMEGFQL

With Biotin-CVQRKRQKLMPC (disulfide 1-12 (inferred), NLS segment of cSN50.1, no SSHR) [biotinylated cN50.1 peptide], the binding result with importin beta is reported as “no binding”.

Turning to Biotin-VQRKRQKLMP (NLS segment of SN50, no SSHR) [biotinylated N50 peptide], the binding result with importin beta was “no binding”.

B1: biotinylated SN50 peptide (peptide)
peptide: Biotin-AAVALLPAVLLALLAPVQRKRQKLMP
notes: also called NTM; full-length biotinylated NTM
Take B1: the binding result with GAPDH is reported as “no binding”.

B2: biotinylated cSN50.1 peptide (peptide)
peptide: Biotin-AAVALLPAVLLALLAPCVQRKRQKLMPC
modifications: disulfide 17-28 (inferred)
notes: the N-biotinylated version was used in the pull-down assays; also called NTM; full-length biotinylated NTM
With B2, the binding result with GAPDH is “no binding”.

B3: biotinylated cSN50.1 Beta peptide (peptide)
peptide: Biotin-AAVALLPAVLLALLAPCVQRDEQKLMPC
modifications: disulfide 17-28 (inferred)
notes: cSN50.1 with lysine 21 replaced by aspartic acid and arginine 22 replaced by glutamic acid
In the case of B3, the binding result with importin alpha 5 and in the experiment with importin alpha 1 was “no binding” each time.
